In US20030148973A1 (published 2003):

Biological target: T1, HLA-A0201 molecules on the surface of T2 cells
T1 construct: whole, on cells; Empty (peptide-stripped) HLA-A0201 on T2 cells; also called HLA-A2
Test: T2 cell HLA-A0201 stabilization; 20 µg peptide on 10^6 acid-stripped T2 cells, BB7.2 staining, flow cytometry
Experimental: Subsequent dissociation of peptides from the HLA class 1 MHC molecules results in the loss of BB7.2 monoclonal antibody binding.
In order to determine whether the identified nonapeptides can be presented by HLA-A0201, T2 cells were propagated in RPMI complete medium (RPMI medium supplemented with 10% heat-inactivated bovine serum, 120.0 units per ml of penicillin G sodium, 120 μg per ml of streptomycin sulphate, and 0.35 mg per ml of L-glutamine). The ability of MAGE-A1 derived peptides to bind and stabilize surface HLA-A0201 molecules on T2 cells was determined utilizing a standard protocol (Deng, Y. (1997) J Immunol 158:1507-1515). The required number of T2 flasks were incubated overnight at 26° C. serum-free culture medium (RPMI medium supplemented with 120.0 units per ml of penicillin G sodium and 0.35 mg per ml of L-glutamine). The next day, cells were washed with RPMI medium (without bovine serum) and then resuspended in denaturing solution (300 mM Glycine in 1% BSA, pH 2.5) for 3 min, in order to strip the existing HLA A2 molecules of endogenous peptide. The stripped T2 cells were washed at once in an excess of RPMI media (without bovine serum) to neutralize the acidic stripping solution. To load the peptide of interest into the HLA-A2 peptide binding groove, 20 μg of specific peptide was pulsed onto 10⁶ denatured T2 cells in 2 ml peptide loading media (RPMI medium supplemented with 120.0 units per ml of penicillin G sodium; 0.35 mg per ml of L-glutamine; 1× sodium pyruvate; 1× non-essential amino acids; 1×2-mercapto-ethanol) for 4 hours at 26° C. The cells were washed in cold 1% BSA in PBS and resuspended in 100 μl of cold 1% BSA in PBS to prevent MHC protein turn over. […] The binding of BB7.2 was detected via the addition of 1.0 μg per test of goat anti-mouse IgG-Fc fluorescein (FITC) conjugate (BETHYL Laboratories Inc). […] The samples were then analyzed by Flow Cytometry, and the results were expressed in units of Fluorescence Index (FI), calculated by the equation: […]

Fluorescence Index (FI)	Binder
2.18	KVLEYVIKV (also called Peptide # 1) [MAGE-A1 278]
0.52	LQLVFGIDV (also called Peptide # 3) [MAGE-A1 151]
1.61	SAYGEPRKL (also called Peptide # 14) [MAGE-A1 230]
